Measurements from patent US20160024213A1 (VIB VZW, published 2016).

Experiments:
[1] = biological target: T1, Recombinant human MMR (R&D Systems) (human, UniProt P22897 19-1383); assay: SPR, BIAcore T100, human MMR on CM5 chip
T1 construct: Bought from R&D Systems; also called hMMR; recombinant hMMR
T1 sequence: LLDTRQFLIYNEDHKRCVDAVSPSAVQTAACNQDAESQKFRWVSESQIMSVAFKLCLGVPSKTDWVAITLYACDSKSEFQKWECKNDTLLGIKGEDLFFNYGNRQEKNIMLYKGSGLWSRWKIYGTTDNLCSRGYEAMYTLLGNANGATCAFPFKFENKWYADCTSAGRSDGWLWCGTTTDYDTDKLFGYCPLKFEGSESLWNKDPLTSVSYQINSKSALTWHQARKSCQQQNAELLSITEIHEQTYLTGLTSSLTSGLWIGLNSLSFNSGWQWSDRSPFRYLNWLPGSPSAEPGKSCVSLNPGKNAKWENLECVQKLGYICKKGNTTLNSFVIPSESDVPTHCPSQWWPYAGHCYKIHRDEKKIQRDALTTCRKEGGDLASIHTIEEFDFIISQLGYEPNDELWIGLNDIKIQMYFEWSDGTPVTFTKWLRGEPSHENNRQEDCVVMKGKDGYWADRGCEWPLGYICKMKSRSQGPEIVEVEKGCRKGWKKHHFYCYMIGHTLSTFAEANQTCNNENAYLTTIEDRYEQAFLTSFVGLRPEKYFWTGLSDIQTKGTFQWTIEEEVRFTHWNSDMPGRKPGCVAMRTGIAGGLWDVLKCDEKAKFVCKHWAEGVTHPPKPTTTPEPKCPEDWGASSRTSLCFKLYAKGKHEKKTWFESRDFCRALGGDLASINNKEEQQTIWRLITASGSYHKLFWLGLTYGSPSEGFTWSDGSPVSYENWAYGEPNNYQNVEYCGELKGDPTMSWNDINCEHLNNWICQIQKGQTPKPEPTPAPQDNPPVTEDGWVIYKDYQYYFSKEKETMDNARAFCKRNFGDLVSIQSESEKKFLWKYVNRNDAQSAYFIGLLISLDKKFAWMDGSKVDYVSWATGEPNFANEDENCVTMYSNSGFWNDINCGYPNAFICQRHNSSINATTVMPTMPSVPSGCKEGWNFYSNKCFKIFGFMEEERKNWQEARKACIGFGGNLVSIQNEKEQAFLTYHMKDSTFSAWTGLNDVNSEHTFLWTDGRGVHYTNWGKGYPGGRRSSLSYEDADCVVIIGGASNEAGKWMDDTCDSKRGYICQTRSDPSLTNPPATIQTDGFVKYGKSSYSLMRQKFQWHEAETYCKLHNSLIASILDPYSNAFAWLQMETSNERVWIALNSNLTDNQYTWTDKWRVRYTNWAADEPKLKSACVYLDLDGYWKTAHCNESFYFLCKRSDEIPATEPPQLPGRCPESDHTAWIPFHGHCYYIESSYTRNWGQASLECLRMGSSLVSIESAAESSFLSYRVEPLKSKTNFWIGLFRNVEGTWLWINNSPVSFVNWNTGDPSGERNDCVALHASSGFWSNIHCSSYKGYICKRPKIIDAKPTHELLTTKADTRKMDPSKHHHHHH
Procedure: (§1) Affinity analysis was performed using a BIAcore T100 (GE Healthcare) with HEPES-buffered saline running buffer (10 mM HEPES with 0.15 M NaCl, 3.4 mM EDTA and 0.005% surfactant P20 at pH 7.4). MRR was immobilized on a CM5 chip in acetate buffer 50 mM (pH 5.0), resulting in 2100 RU MMR coated on the chip. A second channel on the same chip was activated/deactivated in a similar way and served as a negative control. The MMR Nanobodies were used as analytes in 11 different concentrations, ranging from 1 to 2000 nM, at a flow rate of […]. Glycine-HCl 50 mM (pH 2.0) was used for elution. The kinetic and equilibrium parameters (kd, ka and KD) values were calculated from the combined sensogram of all concentrations using BIAcore T100 evaluation software 2.02 (GE Healthcare).
(§2) The binding characteristics and affinity of selected Nbs towards the recombinant hMMR and recombinant mMMR antigen was examined in further detail using surface plasmon resonance. A combined sensogram was recorded for each Nb (example for NbhmMMRm3.49 in FIG. 7) and the kinetic and equilibrium parameters (kd, ka and KD) values were calculated (Table 8 and Table 9). Most but not all results on binding to mouse or human rMMR obtained via this SPR analysis are in agreement with the results obtained by PE-ELISA.

[2] = biological target: T2, Recombinant mouse MMR (R&D Systems) (mouse, UniProt Q61830 20-1388); assay: SPR, BIAcore T100, mouse MMR on CM5 chip
T2 construct: Bought from R&D Systems; Immobilised on CM5 chip (SPR) or coated on plates (ELISA); also called mMMR; recombinant mMMR
T2 sequence: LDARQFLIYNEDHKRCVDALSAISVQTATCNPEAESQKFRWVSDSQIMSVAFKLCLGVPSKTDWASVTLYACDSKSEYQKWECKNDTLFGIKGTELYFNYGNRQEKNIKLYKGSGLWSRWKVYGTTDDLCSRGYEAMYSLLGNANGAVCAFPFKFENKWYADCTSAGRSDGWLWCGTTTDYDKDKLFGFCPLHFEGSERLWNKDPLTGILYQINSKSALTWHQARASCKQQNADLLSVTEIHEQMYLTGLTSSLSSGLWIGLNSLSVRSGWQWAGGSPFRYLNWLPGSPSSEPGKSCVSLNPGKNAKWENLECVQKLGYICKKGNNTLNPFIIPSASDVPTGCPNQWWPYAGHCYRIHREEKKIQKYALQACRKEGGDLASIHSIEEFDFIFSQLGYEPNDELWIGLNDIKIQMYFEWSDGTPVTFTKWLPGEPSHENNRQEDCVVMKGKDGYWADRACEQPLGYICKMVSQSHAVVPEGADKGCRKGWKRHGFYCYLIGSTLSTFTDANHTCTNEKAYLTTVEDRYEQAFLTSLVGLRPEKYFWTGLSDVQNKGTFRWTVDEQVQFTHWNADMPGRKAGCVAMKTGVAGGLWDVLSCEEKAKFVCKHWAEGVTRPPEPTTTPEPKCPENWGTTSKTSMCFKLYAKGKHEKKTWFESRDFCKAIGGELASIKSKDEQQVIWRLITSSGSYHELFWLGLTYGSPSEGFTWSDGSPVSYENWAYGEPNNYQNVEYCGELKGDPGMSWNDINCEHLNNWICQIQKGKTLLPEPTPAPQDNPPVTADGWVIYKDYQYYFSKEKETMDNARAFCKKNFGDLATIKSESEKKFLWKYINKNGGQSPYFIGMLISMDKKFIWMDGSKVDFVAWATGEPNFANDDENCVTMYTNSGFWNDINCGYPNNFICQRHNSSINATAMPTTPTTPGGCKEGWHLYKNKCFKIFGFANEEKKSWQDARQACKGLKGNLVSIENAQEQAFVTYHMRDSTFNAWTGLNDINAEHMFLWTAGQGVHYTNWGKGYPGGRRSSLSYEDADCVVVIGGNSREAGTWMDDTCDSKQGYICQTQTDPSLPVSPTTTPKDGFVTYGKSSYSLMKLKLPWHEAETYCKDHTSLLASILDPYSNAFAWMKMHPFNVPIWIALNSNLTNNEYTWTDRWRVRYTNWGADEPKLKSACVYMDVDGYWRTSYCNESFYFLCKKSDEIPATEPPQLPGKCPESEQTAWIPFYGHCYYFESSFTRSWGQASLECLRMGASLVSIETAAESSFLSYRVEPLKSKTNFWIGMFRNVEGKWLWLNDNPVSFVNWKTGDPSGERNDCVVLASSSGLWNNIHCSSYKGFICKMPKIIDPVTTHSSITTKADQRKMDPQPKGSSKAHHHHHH
Procedure: as §1, §2

[3] = biological target: T2, Recombinant mouse MMR (R&D Systems); assay: SPR, BIAcore T100, MMR on CM5 chip, Nanobody as analyte
Procedure: as §1
Anti-CD206 (anti-MMR) Nanobodies (Nbs), which are the smallest available antigen-binding entities, were created in order to target MMR-positive cells in vivo. Nanobodies were raised against the recombinant extracellular portion of MMR, as described in the Materials and Methods (see also Table 1). The binding characteristics of the monovalent anti-MMR Nanobodies were compared using surface Plasmon resonance (SPR) measurements (Table 2).

[4] = biological target: T2, Recombinant mouse MMR (R&D Systems); assay: SPR, immobilised recombinant MMR
Procedure: as §1
Bivalent Nanobodies were constructed by linking two anti-MMR Nanobody 1 entities using (G₄S)₃ ([…]; SEQ ID NO:151), llama IgG2 hinge ([…]; SEQ ID NO:152) or human IgA hinge ([…] SEQ ID NO:153) linkers. […] As a negative control Nanobody in all experiments, we consistently used α-BCII10 Nb, which is a binder of the β-lactamase BCII enzyme of Bacillus cereus.

B1: Anti-MMR Nanobody clone 1 (VHH)
VHH: QVQLQESGGGLVQPGGSLRLSCAASGNIFSINAIGWYRQAPGKQRELVATITLSGSTNYADSVKGRFSISRDNAKNTVYLQMNSLKPEDTAVYYCNANTYSDSDVYGYWGQGTQVTVSS
notes: 99mTc-labelled at the His tail in the in vivo experiments; also called Anti-MMR Nb1; Nb MMR cl1
binding result [1]: no binding (tested: analyte 1 to 2000 nM)
koff [2]: 0.0133 s⁻¹
kon [2]: 576000 M⁻¹ s⁻¹
koff [3]: 0.0133 s⁻¹
kon [3]: 576000 M⁻¹ s⁻¹

B2: Bivalent anti-MMR Nanobody 1 with llama IgG2 hinge linker (VHH)
chain: QVQLQESGGGLVQPGGSLRLSCAASGNIFSINAIGWYRQAPGKQRELVATITLSGSTNYADSVKGRFSISRDNAKNTVYLQMNSLKPEDTAVYYCNANTYSDSDVYGYWGQGTQVTVSSAHHSEDPSSKAPKAPMAQVQLQESGGGLVQPGGSLRLSCAASGNIFSINAIGWYRQAPGKQRELVATITLSGSTNYADSVKGRFSISRDNAKNTVYLQMNSLKPEDTAVYYCNANTYSDSDVYGYWGQGTQVTVSSHHHHHH
notes: Bivalent tandem of two clone 1 VHH domains in one chain; also called biv MMR linker 2 g2c; MMR biv g2c
fold increase in KD (so in the source) compared to the monovalent clone 1 Nanobody [4]: 3 fold
koff [3]: 0.00411 s⁻¹
kon [3]: 1.02e+06 M⁻¹ s⁻¹

B3: Bivalent anti-MMR Nanobody 1 with human IgA hinge linker (VHH)
chain: QVQLQESGGGLVQPGGSLRLSCAASGNIFSINAIGWYRQAPGKQRELVATITLSGSTNYADSVKGRFSISRDNAKNTVYLQMNSLKPEDTAVYYCNANTYSDSDVYGYWGQGTQVTVSSSPSTPPTPSPSTPPASQVQLQESGGGLVQPGGSLRLSCAASGNIFSINAIGWYRQAPGKQRELVATITLSGSTNYADSVKGRFSISRDNAKNTVYLQMNSLKPEDTAVYYCNANTYSDSDVYGYWGQGTQVTVSSHHHHHH
notes: Bivalent tandem of two clone 1 VHH domains in one chain; also called biv MMR linker 3 IgA; MMR biv IgA
fold increase in KD (so in the source) compared to the monovalent clone 1 Nanobody [4]: 3 fold
koff [3]: 0.00428 s⁻¹
kon [3]: 913000 M⁻¹ s⁻¹

B4: Bivalent anti-MMR Nanobody 1 with (Gly4Ser)3 linker (VHH)
chain: QVQLQESGGGLVQPGGSLRLSCAASGNIFSINAIGWYRQAPGKQRELVATITLSGSTNYADSVKGRFSISRDNAKNTVYLQMNSLKPEDTAVYYCNANTYSDSDVYGYWGQGTQVTVSSGGGGSGGGGSGGGGSQVQLQESGGGLVQPGGSLRLSCAASGNIFSINAIGWYRQAPGKQRELVATITLSGSTNYADSVKGRFSISRDNAKNTVYLQMNSLKPEDTAVYYCNANTYSDSDVYGYWGQGTQVTVSSHHHHHH
notes: Bivalent tandem of two clone 1 VHH domains in one chain; also called biv MMR linker 1 GS; MMR biv (Gly4Ser)3
fold increase in KD (so in the source) compared to the monovalent clone 1 Nanobody [4]: 3 fold
koff [3]: 0.0044 s⁻¹
kon [3]: 1.04e+06 M⁻¹ s⁻¹

B5: Anti-MMR Nanobody clone 3 (VHH)
VHH: QVQLQESGGGLVQAGGSLRLSCAASGRTFSRDAMGWFRQAPGKEREFVAGISWSGGSTYYADSVKGRFTISRDGAKNTVNLQMNSLKPEDTAVYYCAASSIYGSAVVDGLYDYWGQGTQVTVSS
notes: Monovalent, His-tagged; also called Anti-MMR Nb3; Nb clone 3
binding result [1]: no binding (tested: analyte 1 to 2000 nM)
koff [2]: 0.0186 s⁻¹
kon [2]: 97300 M⁻¹ s⁻¹
koff [3]: 0.0186 s⁻¹
kon [3]: 97300 M⁻¹ s⁻¹
